Experimental data from US20080227691A1.

Each substance was assayed against LRP (low density lipoprotein receptor-related protein) (human) (UniProt Q07954) (assay: SPR, Biacore 3000, LRP amine-coupled to CM5 chip, A2 domain as analyte 62.5-500 nM, 1:1 Langmuir fit, 25 C).

| Substance | Kd [nM] |
| --- | --- |
| HPC4-tagged A2 domain mutant 433D->N (from UniProt P00451 392-759) (ligand) | 170 |
| HPC4-tagged A2 domain mutant 488S->N & 490R->T (from UniProt P00451 392-759) (ligand) | 260 |
| HPC4-tagged A2 domain of wild-type FVIII (from UniProt P00451 392-759) (ligand) | 20 |
